In article PMC5708760:

Target: flag-tagged ErbB2 (Xenopus laevis, wild type) (Xenopus laevis)

- phospho-Akt (S473) by western blot, normalised to GFP-myc, in ErbB2-transfected, serum-starved Hek293T cells treated with 10 ng/mL bacEC for 1 to 60 minutes: 20%
Substance: recombinant EC1-3 (bacEC) (domain or fragment)
